The values that follow are results of earlier work, collected in PMC8027070.

Read-outs that look alike come from different tables or passages of the source.

The target in data set [1] is VIP (Homo sapiens) (UniProt P01282).
The target of data set [2] is PACAP (Homo sapiens) (UniProt P18509).
For data set [3], the target named is VIP (Homo sapiens) (UniProt P01282). The source holds these as a separate data set.
Data set [4] addresses PACAP (Homo sapiens) (UniProt P18509). This is another data set of the same source.
In data set [5] the target is VIP (Homo sapiens) (UniProt P01282). The source holds these as a separate data set.
Data set [6] concerns the target PACAP (Homo sapiens) (UniProt P18509). The source holds these as a separate data set.

UniProt P18509, sequence (P18509 82-129): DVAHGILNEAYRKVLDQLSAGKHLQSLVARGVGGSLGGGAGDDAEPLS
UniProt P01282, sequence (P01282 125-152): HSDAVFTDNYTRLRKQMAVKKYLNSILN

By Kd is commonly meant the equilibrium constant for the complex coming apart. Take PAC1 receptor (from UniProt P41586): the figures for the Kd with VIP (Homo sapiens) [1] and in the data set with PACAP (Homo sapiens) [2] were > 500 nM and 0.5 nM, respectively.

With VPAC1 receptor (from UniProt P32241), the Kd with VIP (Homo sapiens) [3] and in the data set with PACAP (Homo sapiens) [4] was 1 nM throughout.

In the case of VPAC2 receptor (from UniProt P41587), the dissociation constant (Kd) with VIP (Homo sapiens) [5] and with PACAP (Homo sapiens) [6] was 1 nM each time.
